Test results: patent US20030040042A1, “Recombinant fibroblast growth factors” (published 2003)

T1: FGF receptor on bovine adrenal cortex capillary endothelial (ACE) cells (bovine, UniProt P12820)
T1 sequence: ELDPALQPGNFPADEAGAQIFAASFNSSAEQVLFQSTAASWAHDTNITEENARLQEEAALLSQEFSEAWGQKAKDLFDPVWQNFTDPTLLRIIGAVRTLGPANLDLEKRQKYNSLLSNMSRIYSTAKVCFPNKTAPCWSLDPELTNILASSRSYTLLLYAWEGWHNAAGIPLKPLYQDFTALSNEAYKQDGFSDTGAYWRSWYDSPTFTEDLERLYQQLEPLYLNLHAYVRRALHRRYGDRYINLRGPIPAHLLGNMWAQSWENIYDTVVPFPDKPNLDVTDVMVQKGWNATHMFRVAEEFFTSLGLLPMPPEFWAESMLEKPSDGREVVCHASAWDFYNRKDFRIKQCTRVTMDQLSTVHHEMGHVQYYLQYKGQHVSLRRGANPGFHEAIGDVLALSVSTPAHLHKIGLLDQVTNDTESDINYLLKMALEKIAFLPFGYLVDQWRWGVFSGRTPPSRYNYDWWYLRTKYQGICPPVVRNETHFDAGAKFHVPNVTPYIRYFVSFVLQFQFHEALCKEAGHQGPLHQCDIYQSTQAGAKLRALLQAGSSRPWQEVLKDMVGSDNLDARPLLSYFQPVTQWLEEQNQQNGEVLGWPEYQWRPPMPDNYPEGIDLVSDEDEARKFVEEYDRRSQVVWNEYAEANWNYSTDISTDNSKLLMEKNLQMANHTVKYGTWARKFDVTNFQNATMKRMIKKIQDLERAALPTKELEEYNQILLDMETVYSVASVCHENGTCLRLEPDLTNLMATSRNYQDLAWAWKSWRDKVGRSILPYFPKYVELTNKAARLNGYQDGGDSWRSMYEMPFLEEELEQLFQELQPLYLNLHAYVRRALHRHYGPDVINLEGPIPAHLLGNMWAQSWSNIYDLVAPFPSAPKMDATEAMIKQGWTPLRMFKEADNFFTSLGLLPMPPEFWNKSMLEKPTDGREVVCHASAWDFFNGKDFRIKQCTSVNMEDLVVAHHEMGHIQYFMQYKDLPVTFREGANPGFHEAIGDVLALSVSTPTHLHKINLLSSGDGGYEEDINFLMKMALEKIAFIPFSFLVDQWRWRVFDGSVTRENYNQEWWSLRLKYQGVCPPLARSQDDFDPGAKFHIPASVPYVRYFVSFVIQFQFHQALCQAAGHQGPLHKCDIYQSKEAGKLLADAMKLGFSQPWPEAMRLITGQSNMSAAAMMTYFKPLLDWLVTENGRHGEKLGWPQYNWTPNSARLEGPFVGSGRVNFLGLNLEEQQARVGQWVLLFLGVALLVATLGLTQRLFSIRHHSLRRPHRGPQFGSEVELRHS

B1: bFGF-C34/78/101S (ligand)
chain: MAAGSITTLPALPEDGGSGAFPPGHFKDPKRLYSKNGGFFLRIHPDGRVDGVREKSDPHIKLQLQAEERGVVSIKGVSANRYLAMKEDGRLLASKCVTDESFFFERLESNNYNTYRSRKYTSWYVALKRTGQYKLGSKTGPGQKAILFLPMSAKS

What was measured:
[1] = molecular target: FGF receptor on Balb/c 3T3 cells
[2] = molecular target: FGF receptor on Balb/c 3T3 cells; assay: competition with [125I]-bFGF on Balb/c 3T3 cells, no heparin
[3] = molecular target: FGF receptor on Balb/c 3T3 cells; assay: competition with [125I]-bFGF on Balb/c 3T3 cells, 1 ug/ml heparin
[4] = molecular target: FGF receptor on Balb/c 3T3 cells; assay: competition with [125I]-bFGF on Balb/c 3T3 cells
[5] = molecular target: FGF receptor on Balb/c 3T3 cells; remark: listed apart in the source
[6] = molecular target: FGF receptor on bovine adrenal cortex capillary endothelial (ACE) cells (bovine) (UniProt P12820)
[7] = molecular target: T1, FGF receptor on bovine adrenal cortex …; assay: cell-based or functional assay

Molecule | 3T3 mitogenic assay, ED50 in the absence of bFGF(25-155) [1] [ng/mL] | 3T3 mitogenic assay, ED50 in the presence of 10 ng/ml bFGF(25-155) [1] [ng/mL] | 3T3 mitogenic assay, ED50 in the presence of 100 ng/ml bFGF(25-155) [1] [ng/mL] | FGF-Rc Comp. (ED50 analog / ED50 wild type FGF) [2] | FGF-Rc Comp. (ED50 analog / ED50 wild type FGF) [3] | EC50 [4] [ng/mL] | 3T3 Mito. (thymidine uptake), EC50 (ED50) [5] [ng/mL] | 3T3 Mito., 1 ug/ml heparin (ED50 wild type / ED50 analog x 100%) (% of wild type) [5] | 3T3 Mito., no heparin (ED50 wild type / ED50 analog x 100%) (% of wild type) [5] | ACE Mito., 1 ug/ml heparin (ED50 wild type / ED50 analog x 100%) (% of wild type) [6] | ACE Mito., no heparin (ED50 wild type / ED50 analog x 100%) (% of wild type) [6] | ACE cell proliferation, EC50 (ED50) [6] [ng/mL] | inhibition of the activity of 1 ng/ml wild type bFGF in the 3T3 mitogenic assay, no heparin [1] [%] | ACE Mito., 1 ug/ml heparin (ED50 wild type / ED50 analog x 100%) [7] | ACE Mito., no heparin (ED50 wild type / ED50 analog x 100%) [7]
recombinant human basic FGF (wild type) (from UniProt P09038-2) (ligand) | < 1 | 10 | 100 | 1 | 1 | 10 | 0.63 | 100 | 100 | 100 | 100 | 0.16 |  |  | 
bFGF(25-155) (from UniProt P09038-2) (ligand) |  |  |  |  |  |  |  | 100 | 50 |  |  |  | > 95 |  | 
B1 |  |  |  | 0.45 | 0.5 |  |  | 144 | 65 |  |  |  |  | 72 % of wild type | 2 % of wild type
